The test system of the assay is human iRhom2. Briefly: Peptide binding ELISA, binding specificity (Example 10), iRhom2 peptides. Particulars: antibody 3 μg/ml PBS; peptides coated at 10 μg/ml; normalized to IgM isotype control. As for the experimental part: Another series of peptide binding ELISA experiments was conducted to address the specificity of the purified antibody 4H8-E3 of the invention, i.e. to question whether this antibody specifically recognizes peptides, in particular peptide 3, resembling the extracellular juxtamembrane region adjacent to the TMD1 of human iRhom2, or whether the antibody 4H8-E3 of the invention also binds to peptides reflecting the homologous region of the closely related family member human iRhom1.
In brief, on day 1, Nunc black MaxiSorp® 96-well plates (Thermo Fisher Scientific, USA) were coated overnight with 100 μl per well of single biotinylated peptides 1 to 4, Mix A consisting of peptides 1 to 4, single biotinylated peptides 1b to 4b, and Mix D consisting of peptides 1b to 4b at 10 μg/m1 PBS each (thus, the final concentration of each peptide in both mixes was 2.5 μg/m1) at 4° C. On day 2, peptide solutions were removed and MaxiSorp® plates were blocked with 300 μl per well of Pierce protein-free (TBS) blocking buffer (Thermo Fisher Scientific, USA) at room temperature for 1.5 hours. […] Using an infinite M1000 PRO (Tecan Group, Switzerland) microplate reader, the fluorescence of each well was collected at an excitation wavelength of 435 nm and an emission wavelength of 555 nm.

B1: 4H8-E3: Mouse IgM monoclonal antibody against the human iRhom2 juxtamembrane domain adjacent to TMD1; HC VD SEQ ID NO 33, LC VD SEQ ID NO 40 (antibody, V domains shown)
VH: EVQLQQSGPELVKPGASVKISCKASGYTFTDYYMNWVKQSHGKSLEWIGDINPNNGGTSYNQKFKGKATLTVDKSSNTAYMEFRSLTSEDSAVYYCARRGYYGVDYWGQGTTLTVSS
VL: NIVMTQSPKSMSMSVGERVTLNCKASENVGTYVSWYQQKPEQSPKLLIFGASNRYTGVPDRFIGSGFATDFTLTISSVQAEDLADYHCGQSYSYPYTFGGGTKLEIK
modifications: IgM constant regions; antibody sequence
B1: the “binding to Mix A consisting of peptides 1, 2, 3 and 4” value is “Binding”.
